Measured values taken from PMC4006906 (PLoS Pathogens, 2014).

Target: H5VN04 trimeric HA (recombinant hemagglutinin) (Influenza A virus A/Vietnam/1203/2004 …, strain)
Test: SPR
Conditions: both partners purified

B1: CR6261 scFv (wild type) (scFv, V domains shown)
VH: EVQLVESGAEVKKPGSSVKVSCKASGGPFRSYAISWVRQAPGQGPEWMGGIIPIFGTTKYAPKFQGRVTITADDFAGTVYMELSSLRSEDTAMYYCAKHMGYQVRETMDVWGKGTTVTVSS
VL: QSVLTQPPSVSAAPGQKVTISCSGSSSNIGNDYVSWYQQLPGTAPKLLIYDNNKRPSGIPDRFSGSKSGTSATLGITGLQTGDEANYYCATWDRRPTAYVVFGGGTKLTVL
  binding result: binds
